B1: target 1 insU 3' of 21,insC 3' of 5 (mixed)
RNA 1: CACCCGUGCAAAAAUGCAGGGGUCUAAAACUGAGCGGAUAACCUCUCUAUGG
RNA 2: GGGAAUGGAUCCACAUCUACGAAUUCGUACCUAUAGAGAGGUUAUCCGCCUCACCGAGAUCGGAAGAGCACACGU
B2: target 1 insA 3' of 5,insC 3' of 1 (mixed)
RNA 1: CACCCGUGCAAAAAUGCAGGGGUCUAAAACUGAGCGGAUAACCUCUCUAUGG
RNA 2: GGGAAUGGAUCCACAUCUACGAAUUCGUACCAUAGAGAGGUUAUCCGACUCACCCGAGAUCGGAAGAGCACACGU
B3: target 3 C6G,U8C (mixed)
RNA 1: CACCCGUGCAAAAUUGCAGGGGUCUAAAACGACCUGAAUAUUUCAGAUCAAA
RNA 2: GGGAAUGGAUCCACAUCUACGAAUUCGUUUUUGAUCUGAAAUACUGAGGUCUGCAGAUCGGAAGAGCACACGU
B4: target 3 insG 3' of 5 (mixed)
RNA 1: CACCCGUGCAAAAUUGCAGGGGUCUAAAACGACCUGAAUAUUUCAGAUCAAA
RNA 2: GGGAAUGGAUCCACAUCUACGAAUUCGUUUUUGAUCUGAAAUAUUCAGGGUCUGCAGAUCGGAAGAGCACACGU
B5: target 3 G4A,U7A (mixed)
RNA 1: CACCCGUGCAAAAUUGCAGGGGUCUAAAACGACCUGAAUAUUUCAGAUCAAA
RNA 2: GGGAAUGGAUCCACAUCUACGAAUUCGUUUUUGAUCUGAAAUAUACAAGUCUGCAGAUCGGAAGAGCACACGU
B6: target 3 U2A,C16U (mixed)
RNA 1: CACCCGUGCAAAAUUGCAGGGGUCUAAAACGACCUGAAUAUUUCAGAUCAAA
RNA 2: GGGAAUGGAUCCACAUCUACGAAUUCGUUUUUGAUUUGAAAUAUUCAGGACUGCAGAUCGGAAGAGCACACGU
B7: target 3 U7A,U8G (mixed)
RNA 1: CACCCGUGCAAAAUUGCAGGGGUCUAAAACGACCUGAAUAUUUCAGAUCAAA
RNA 2: GGGAAUGGAUCCACAUCUACGAAUUCGUUUUUGAUCUGAAAUAGACAGGUCUGCAGAUCGGAAGAGCACACGU
B8: target 3 insC 3' of 5,insC 3' of 5 (mixed)
RNA 1: CACCCGUGCAAAAUUGCAGGGGUCUAAAACGACCUGAAUAUUUCAGAUCAAA
RNA 2: GGGAAUGGAUCCACAUCUACGAAUUCGUUUUUGAUCUGAAAUAUUCACCGGUCUGCAGAUCGGAAGAGCACACGU
B9: target 3 insC 3' of 13,insC 3' of 3 (mixed)
RNA 1: CACCCGUGCAAAAUUGCAGGGGUCUAAAACGACCUGAAUAUUUCAGAUCAAA
RNA 2: GGGAAUGGAUCCACAUCUACGAAUUCGUUUUUGAUCUGACAAUAUUCAGGCUCUGCAGAUCGGAAGAGCACACGU
B10: target 3 insU 3' of 22,insG 3' of 2 (mixed)
RNA 1: CACCCGUGCAAAAUUGCAGGGGUCUAAAACGACCUGAAUAUUUCAGAUCAAA
RNA 2: GGGAAUGGAUCCACAUCUACGAAUUCGUUUUUUGAUCUGAAAUAUUCAGGUGCUGCAGAUCGGAAGAGCACACGU
B11: target 3 del2,del6 (mixed)
RNA 1: CACCCGUGCAAAAUUGCAGGGGUCUAAAACGACCUGAAUAUUUCAGAUCAAA
RNA 2: GGGAAUGGAUCCACAUCUACGAAUUCGUUUUUGAUCUGAAAUAUUAGGCUGCAGAUCGGAAGAGCACACGU
B12: target 3 G4C,U22G (mixed)
RNA 1: CACCCGUGCAAAAUUGCAGGGGUCUAAAACGACCUGAAUAUUUCAGAUCAAA
RNA 2: GGGAAUGGAUCCACAUCUACGAAUUCGUUGUUGAUCUGAAAUAUUCACGUCUGCAGAUCGGAAGAGCACACGU
B13: target 3 A11C,A18G (mixed)
RNA 1: CACCCGUGCAAAAUUGCAGGGGUCUAAAACGACCUGAAUAUUUCAGAUCAAA
RNA 2: GGGAAUGGAUCCACAUCUACGAAUUCGUUUUUGGUCUGAACUAUUCAGGUCUGCAGAUCGGAAGAGCACACGU
B14: target 3 insG 3' of 7,insU 3' of 4 (mixed)
RNA 1: CACCCGUGCAAAAUUGCAGGGGUCUAAAACGACCUGAAUAUUUCAGAUCAAA
RNA 2: GGGAAUGGAUCCACAUCUACGAAUUCGUUUUUGAUCUGAAAUAUUGCAGUGUCUGCAGAUCGGAAGAGCACACGU
B15: target 3 insA 3' of 22,insC 3' of 20 (mixed)
RNA 1: CACCCGUGCAAAAUUGCAGGGGUCUAAAACGACCUGAAUAUUUCAGAUCAAA
RNA 2: GGGAAUGGAUCCACAUCUACGAAUUCGUUUAUUCGAUCUGAAAUAUUCAGGUCUGCAGAUCGGAAGAGCACACGU
B16: target 3 U7C,U22C (mixed)
RNA 1: CACCCGUGCAAAAUUGCAGGGGUCUAAAACGACCUGAAUAUUUCAGAUCAAA
RNA 2: GGGAAUGGAUCCACAUCUACGAAUUCGUUCUUGAUCUGAAAUAUCCAGGUCUGCAGAUCGGAAGAGCACACGU
B17: target 3 insG 3' of 7,insU 3' of 3 (mixed)
RNA 1: CACCCGUGCAAAAUUGCAGGGGUCUAAAACGACCUGAAUAUUUCAGAUCAAA
RNA 2: GGGAAUGGAUCCACAUCUACGAAUUCGUUUUUGAUCUGAAAUAUUGCAGGUUCUGCAGAUCGGAAGAGCACACGU
B18: target 3 insC 3' of 9,insA 3' of 6 (mixed)
RNA 1: CACCCGUGCAAAAUUGCAGGGGUCUAAAACGACCUGAAUAUUUCAGAUCAAA
RNA 2: GGGAAUGGAUCCACAUCUACGAAUUCGUUUUUGAUCUGAAAUACUUCAAGGUCUGCAGAUCGGAAGAGCACACGU
B19: target 3 A5C,C6A (mixed)
RNA 1: CACCCGUGCAAAAUUGCAGGGGUCUAAAACGACCUGAAUAUUUCAGAUCAAA
RNA 2: GGGAAUGGAUCCACAUCUACGAAUUCGUUUUUGAUCUGAAAUAUUACGGUCUGCAGAUCGGAAGAGCACACGU
B20: target 3 insG 3' of 6,insG 3' of 2 (mixed)
RNA 1: CACCCGUGCAAAAUUGCAGGGGUCUAAAACGACCUGAAUAUUUCAGAUCAAA
RNA 2: GGGAAUGGAUCCACAUCUACGAAUUCGUUUUUGAUCUGAAAUAUUCGAGGUGCUGCAGAUCGGAAGAGCACACGU
B21: target 3 U2G,G4U (mixed)
RNA 1: CACCCGUGCAAAAUUGCAGGGGUCUAAAACGACCUGAAUAUUUCAGAUCAAA
RNA 2: GGGAAUGGAUCCACAUCUACGAAUUCGUUUUUGAUCUGAAAUAUUCAUGGCUGCAGAUCGGAAGAGCACACGU
B22: target 3 insC 3' of 4,insA 3' of 2 (mixed)
RNA 1: CACCCGUGCAAAAUUGCAGGGGUCUAAAACGACCUGAAUAUUUCAGAUCAAA
RNA 2: GGGAAUGGAUCCACAUCUACGAAUUCGUUUUUGAUCUGAAAUAUUCAGCGUACUGCAGAUCGGAAGAGCACACGU
B23: target 3 C6U,A12U (mixed)
RNA 1: CACCCGUGCAAAAUUGCAGGGGUCUAAAACGACCUGAAUAUUUCAGAUCAAA
RNA 2: GGGAAUGGAUCCACAUCUACGAAUUCGUUUUUGAUCUGAUAUAUUUAGGUCUGCAGAUCGGAAGAGCACACGU

For this data set, the target named is T1, EsCas13d, nuclease-dead (Eubacterium siraeum, UniProt B0MS50, R295A;H300A;R849A;H854A).
T1 sequence: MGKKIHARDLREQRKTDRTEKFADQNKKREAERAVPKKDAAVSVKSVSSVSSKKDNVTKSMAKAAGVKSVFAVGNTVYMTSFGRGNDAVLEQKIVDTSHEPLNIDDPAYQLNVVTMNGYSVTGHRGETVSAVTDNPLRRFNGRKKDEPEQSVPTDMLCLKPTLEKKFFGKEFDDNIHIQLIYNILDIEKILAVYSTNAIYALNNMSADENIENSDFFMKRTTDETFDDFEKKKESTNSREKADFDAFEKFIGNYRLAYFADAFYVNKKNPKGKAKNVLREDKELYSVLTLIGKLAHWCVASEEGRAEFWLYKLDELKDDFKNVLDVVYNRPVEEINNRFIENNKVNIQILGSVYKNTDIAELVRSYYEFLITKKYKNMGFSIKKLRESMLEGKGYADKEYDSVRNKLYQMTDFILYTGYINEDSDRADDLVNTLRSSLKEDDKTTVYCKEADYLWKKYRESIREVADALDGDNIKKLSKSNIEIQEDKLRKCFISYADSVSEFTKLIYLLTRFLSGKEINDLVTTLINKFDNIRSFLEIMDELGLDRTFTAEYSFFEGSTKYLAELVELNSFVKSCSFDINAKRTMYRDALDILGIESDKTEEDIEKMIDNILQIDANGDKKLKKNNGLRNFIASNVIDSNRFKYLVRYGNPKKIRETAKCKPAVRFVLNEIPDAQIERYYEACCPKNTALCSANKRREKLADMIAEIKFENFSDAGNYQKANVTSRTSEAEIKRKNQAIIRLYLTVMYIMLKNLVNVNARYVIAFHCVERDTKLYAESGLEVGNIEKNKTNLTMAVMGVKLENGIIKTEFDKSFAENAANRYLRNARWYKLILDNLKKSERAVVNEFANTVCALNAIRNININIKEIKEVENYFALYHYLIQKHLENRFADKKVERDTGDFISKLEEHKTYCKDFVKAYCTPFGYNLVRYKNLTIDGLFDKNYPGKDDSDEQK
Put plainly: crRNA (strand 1, pre-loaded); Mg2+; 40 mM Tris-HCl pH 7.5, 150 mM NaCl, 6 mM MgCl2, 1 mM DTT, 0.1% Tween-20, 0.2 mg/ml BSA; 25 C; 10 min per concentration, then washed. The note with it: tags: His6-TwinStrep-SUMO cleaved; N-terminal SNAP kept (SNAP-Surface 488); label: 3' end held by stalled T7 RNA polymerase.
For B1, the Kd was 50 ± 10 nM.

On to B2, for which the equilibrium dissociation constant (Kd) was 8.4 ± 1.6 nM.

For the molecule B3, the Kd came out at 74.5 ± 7 nM.

The molecule B4 registered a Kd of 19.9 ± 1.95 nM.

For the molecule B5, the Kd was determined as 21.1 ± 2.25 nM.

As for B6, the equilibrium dissociation constant (Kd) was found to be 45.2 ± 8.25 nM.

B7 came in with a Kd of 84 ± 24 nM.

For B8, the dissociation constant (Kd) stood at 11.1 ± 0.7 nM.

In the case of B9, the affinity, expressed as Kd, was 81 ± 22 nM.

For B10, binding was characterised by a dissociation constant (Kd) of 32.2 ± 3.15 nM.

In turn, B11 displayed a Kd of 18 ± 1.85 nM.

The molecule B12 had a dissociation constant (Kd) of 85.5 ± 24.5 nM.

Molecule B13 displayed a Kd of 73 ± 22.5 nM.

Molecule B14 came in with a dissociation constant Kd of 32 ± 6.1 nM.

In turn, B15 displayed a Kd of 86 ± 34.5 nM.

As to B16, the dissociation constant Kd worked out at 70.5 ± 13.5 nM.

B17 came in with an equilibrium dissociation constant (Kd) of 47.5 ± 10.5 nM.

Molecule B18 came in with a dissociation constant (Kd) of 76.5 ± 16 nM.

Consider B19, for which binding was characterised by a dissociation constant (Kd) of 49 ± 5 nM.

The molecule B20 registered a dissociation constant Kd of 16.3 ± 3 nM.

B21: the Kd is 2.11 ± 0.25 nM.

The molecule B22 came in with a dissociation constant (Kd) of 23.9 ± 3.2 nM.

B23: binding was put at a Kd of 88 ± 21.5 nM.
